# Measured values taken from the DeepSol protein solubility set.
# Assay: soluble on expression in E. coli; label from the status in PepcDB or PDB records
row,Sequence,soluble on expression in E. coli
1,DNNRWIPIKPGTDSALVLGMIQWIIENQRYNKTFLAQPGANAMKRAGTAHWCNATHLVISDEQHPRNGTFLRASDLNLPFEGEALSDSDPYVIVEEQSGQFGVHTQTEEATLFVDKTVSLASGKVRVKSSLQRLKEEAFKYSLAFYSQQCEIPVEQIAELAKRFTSCGTKAVVDTHGGNMHTNGFYNSFTIMMLNALIGNINMKGGAMAKAGGYPTSAAGPRYDFTKFAGKVGPKGVFLSRSKFPYHKTSEYKRRVEAGKSPYPTRAPWYPFAAPLLTEHLSAAIDGYPYRVKAWINHMANPMYGVPGLKTLLEDKLKDPKQLGLIVSVDAFINETTALSDYIVPDTVTYESWGMATPWHDVPVKTITARWPIVEARTEKTADGRSICLENFLIDVAKKMQLGGFGDNAIQDAQGNWHALHSAEDFYLRSAANLAYVKGGVPEVSAEDIAWSGLERLMPAMQSTLTADEMKRVAFIFARGGRFENATEAYQGEQMKHKWTRPVAIWNERVGSARNTMTGDFYTGCPTWHPQKLADGTPMEEQFPSSEWPFSLTNFKSNIHSAVSNLSPRLNSIKGVNPVYIHPIDAERAGIKTGDEFVIETPSASTKALAMIVSGIRPGTLGFEHGFGHTELGQRSHWIGDKQQPVKTRSQDGVNINDIGLIDPTREGKGVLLDWVVGAAARQSLPAKIRKA,not soluble
2,MAHHHHHHMHAEAAAEAAMPVIATLSSRVVRIMGLNPGYMTLQGSNTYLVGTGQERLLIDSGEGVEGYGHLLQKAVAEESTRLGGPVHISKLLLTHWHGDHIGGVETVRRLFPQVQLLKQPSQYAHTEVDALCQVPPEVVKVEGATLQLVHTPGHTDDHLCAFLQEERALFTSDTVLGTGTSVFSSFRDYMASLHVLERMKPERLYPAHGPVVEDGTARIEEIIRHRHTREKQILQVLCERTHGVSALDSEKGLTVRELVDTIYTTIPAALKTAAGTNVFHHVKKLLNEGRVVVRYAPADLVHFLKDATDYTVFGEGADADVKVIERILTEFRVAAAGVSSGAP,soluble
3,MKNIFGNKNTKRSKNKDGKALASTASKDVADPPKQGGTKGSKKPKPSRGNDEKGREPETSAQSKKAKKGKPKRDSKAATPALSPGSREMLSDHKKQTVEDDPPLPIATSVAGTVTTTGMPALLPAENATQPLKEVVNSGKKSKGAPNSATATPVSHKSTITEGADKWVGEDVAKNWMDSIDLAEVKKEFEKLQSMKVDVEKECKTWKANSKYNQSEDFPALDSNLLKVEKDYVNISRVEIPLGRNIYIGQVPVKDTEETFWKAVFDKRIVSIDVIVGDEPIEFFPKKAEDYKNYGQMWINNRKVEYVSDDVFRFSIEVLPHGCSNSIICNVTVISNWKVDSVPVKQAIAIKEAFGLNSYLLKAPADDNAMINSQHGAGRAGYFLALAVAVHTIDTKVAEPCIVDIVKSIRSQRPRAVDSFCQYCSLYISLLYFIKKKVTKPAEGDKKSTPTNKYLHKKSVEMTKQFTNILLEANQPSVMGPQ,not soluble
4,PRVSLFFFSADTDDHAWDKHALVLECAELADSLGLDAIWVPERHFDPFGAPYPSPGLLLAAIAARTSRIALRSGSVVLPLRDPLLVAEEWGVLDSLSRGRMGISLASGWHADDFVLNPEGYERRKDVLEERLADLHTLWNGASITRKGPGGRPVEVRTYPRPERTPEVWLTSSRNPDTWRTAGRLNLHVLTALLEQTIDEITERVGLYHQALTEAGHPTDGRQVTCMLHTHLASDPASVEQRVRGPLIRYLSAHMDLFSKYAAGGGAGIDPDEVTEADRQALLEHGLRRYMGTSGLFGSAESCLPKVERLGAAGITELGCLVDFGLPREQVLESVEELGRLRVALRETAGAPK,soluble
5,MHISFIIPAFNEEQLIEPCLRSITDAVAANRSYGYTSEIIVVDNNSTDATAQLAKQAGAQVVFEPVNHIARARTAGAGAARGDWLVFMDADCLLNAGLVGDIFELIRQGRHIGAGSTLYMPGQPWWAEMLLRIWTFLSVQLGWAAGALIVCNAAAFREVGGFDLTLYAAEEIDLSQKLKKYGRKRKLKFAILNAHPLETSSRKTQLYSGWEIVGQFLRLVLSPLGTLRNKKKLPMWYDGRRLEHHHHHH,soluble
6,MKKSITTLDLNLLLCLQLLMQERSVTKAAKRINVTPSAVSKSLAKLRAWFDDPLFVNSPLGLSPTPLMVSMEQNLAEWMQMSNLLLDKPHHQTPRGLKFELAAESPLMMIMLNALSKQIYQRYPQATIKLRNWDYDSLDAITRGEVDIGFSGRESHPRSRELLSSLPLAIDYEVLFSDVPCVWLRKDHPALHQTWNLDTFLRYPHISICWEQSDTWALDNVLQELGRERTIAMSLPEFEQSLFMAAQPDNLLLATAPRYCQYYNQLHQLPLVALPLPFDESQQKKLEVPFTLLWHKRNSHNPKIVWLRETIKNLYASMA,soluble
7,MNVLLMAYGTPYAPEEVEPYYTDIRRGRRPSEELLKELAERYEAIGKSPLNEITLAQAVRLQALLNLEAPPYPKRLLSPFPPRAPHGPARVYVGTKHWHPSIGEAVAAMHEDGVRRAVAIVAAPHYSLRSVAEYREKVDSALKALPEPIDFVWVESYEAHPGLIAAYARRLEEVIWRLKNPGKAAYVFTAHSIPLSAVEKGDPYPRQVEKTAELIAKKLALPRFHVAYQSAGRTPEPWLGPDINELLRTLKEEGYEEVAVQAVGFPADHLEVFYDLDLEAQATARELGLRLLRARSLNADLDYIQVLKDLVEAAWPR,soluble
8,MRNQFDLELHELEQSFLGLGQLVLETASKALLALASKDKEMAELIINKDHAINQGQSAIELTCARLLALQQPQVSDLRFVISIMSSCSDLERMGDHMAGIAKAVLQLKENQLAPDEEQLHQMGKLSLSMLADLLVAFPLHQASKAISIAQKDEQIDQYYYALSKEIIGLMKDQETSIPNGTQYLYIIGHLERFADYIANICERLVYLETGELVDLN,soluble
9,MEAKAIARYVRISPRKVRLVVDLIRGKSLEEARNILRYTNKRGAYFVAKVLESAAANAVNNHDMLEDRLYVKAAYVDEGPALKRVLPRARGRADIIKKRTSHITVILGEKHGK,soluble
10,MSLHLSNVILHQLCKNDQDELVVKLRPASLENDASTENLVAELHRVFHSKAGKGFGSFQSDSEFQFWLQEMRKGERDFYDFSQISANRLKEELIKYPFADEGILVFAEYQSLATDYLFIGILPMNQSLKVTEGLDISATDYLDITKMDIAARIDLSSYETDKESNRYLQYIKGRVGRKVADFFLDFLQADIGLDTKQQNLVLMQAVDDFCADSKLEKQEVNEYKKQVYNYCNEQIKSGEEVQISELSGELPPSQDGTSFMDFTKEQGYELEESFPGDRSTVRKLTKYVGAGGGLNISFDSLLLGERIFYDPETDTLTIKGTLEHHHHHH,not soluble
11,MENVTNFPLLQLPSKTIQVVLSIMSPFELINFSKSSAEAKKVVKQFANAKRRELYKFKVCIGLIPFVAFV,not soluble
12,MVKQLKFSEDARQAMLRGVDQLANAVKVTIGPKGRNVVLDKEFTAPLITNDGVTIAKEIELEDPYENMGAKLVQEVANKTNEIAGDGTTTATVLAQAMIQEGLKNVTSGANPVGLRQGIDKAVKVAVEALHENSQKVENKNEIAQVGAISAADEEIGRYISEAMEKVGNDGVITIEESNGLNTELEVVEGMQFDRGYQSPYMVTDSDKMVAELERPYILVTDKKISSFQDILPLLEQVVQSNRPILIVADEVEGDALTNIVLNRMRGTFTAVAVKAPGFGDRRKAMLEDLAILTGAQVITDDLGLDLKDASIDMLGTASKVEVTKDNTTVVDGDGDENSIDARVSQLKSQIEETESDFDREKLQERLAKLAGGVAVIKVGAASETELKERKLRIEDALNSTRAAVEEGIVAGGGTALVNVYQKVSEIEAEGDIETGVNIVLKALTAPVRQIAENAGLEGSVIVERLKNAEPGVGFNAATNEWVNMLEEGIVDPTKVTRSALQHAASVAAMFLTTEAVVASIPEKNNDQPNMGGMPGMM,not soluble
13,MEKNWYVVHTYSGYENKVKANLEKRVESMGMQDKIFRVVVPEEEETDIKNGKKKVVKKKVFPGYVLVEIVMTDDSWYVVRNTPGVTGFVGSAGSGSKPTPLLPGEAETILKRMGMDERKTDIDFELKETVKVIDGPFANFTGSIEEIDYDKSKVKVFVNMFGRETPVELEFTQIDKL,soluble
14,MINEIKKDAQERMDKSVEALKNNLSKVRTGRAHPSLLSGISVEYYGAATPLNQVANVVAEDARTLAITVFDKELTQKVEKAIMMSDLGLNPMSAGTIIRVPLPPLTEERRKDLVKIVRGEAEGGRVAVRNIRRDANNDLKALLKDKEISEDEDRKAQEEIQKLTDVAVKKIDEVLAAKEKELMEV,soluble
